Results as given in article PMC6585436 (Chemistry & biology, 2015).

Target: MtMscL CΔ48 C-GFP (pet15b-MtMscL CΔ(103–151)-S-TEV-GFP-6xHis) (Mycobacterium tuberculosis) (UniProt A5U127)
Assay: native MS

Substance: MtMscL CΔ48 C-GFP (pet15b-MtMscL CΔ(103–151)-S-TEV-GFP-6xHis) (from UniProt A5U127 1-102) (domain or fragment)
- stoichiometry N: 5
